Laboratory results reported in US20230131339A1, “EPI-X4 BASED PEPTIDES AND DERIVATIVES THEREOF” (Universitaet Ulm, priority 2020, published 2023).
Where no end group is shown, it is not given here. Side-chain parts run from the residue outwards. [ ]: non-standard residue; d: D form. The star is where a group is joined. Stearoyl = CCCCCCCCCCCCCCCCCC(=O)*; Palmitoyl = CCCCCCCCCCCCCCCC(=O)*; Myristoyl = CCCCCCCCCCCCCC(=O)*; Glu = glutamate linker

Biological target: CXC chemokine receptor type 4 (CXCR4) (human, UniProt P61073 1-352)
Test: cell-based or functional assay

CXC chemokine receptor type 4 (CXCR4), sequence (P61073 whole entry): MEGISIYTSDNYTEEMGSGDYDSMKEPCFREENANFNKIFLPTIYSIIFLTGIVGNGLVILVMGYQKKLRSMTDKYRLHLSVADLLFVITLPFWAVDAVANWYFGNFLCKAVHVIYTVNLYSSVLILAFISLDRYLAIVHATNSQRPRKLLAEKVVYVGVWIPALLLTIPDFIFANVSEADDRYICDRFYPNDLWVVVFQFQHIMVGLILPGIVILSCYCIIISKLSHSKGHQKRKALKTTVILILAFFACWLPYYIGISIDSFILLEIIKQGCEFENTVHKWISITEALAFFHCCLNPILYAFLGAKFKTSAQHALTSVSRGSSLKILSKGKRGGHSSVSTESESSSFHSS

| Binder | IC50, HIV inhibition assay | further results |
| --- | --- | --- |
| IVRWSKK-NH2 [JM#110] | > 0.15 µM |  |
| ILRWSRKVPC[dV]S [JM#15] | > 0.15 µM |  |
| I[dL]RWSRKMPCVS [JM#42] | > 0.15 µM |  |
| Ac-SMRWSRKMPCVS [JM#32] | > 0.15 µM |  |
| [dL]LRWSRKMPCVS (not fully specified (residue 7)) [JM#140] | 0.05 to 0.15 µM |  |
| [dI]LRWSRK(Palmitoyl)LP-NH2 [JM#175] | > 0.15 µM |  |
| ILRWSKKVPCVS [JM#1] | > 0.15 µM |  |
| IVRWSKK(Palmitoyl)-NH2 [JM#165] | > 0.15 µM |  |
| IVRWSRKVPCVS [JM#3] | > 0.15 µM |  |
| IYRWSRKMPCLS [JM#146] | > 0.15 µM |  |
| XMRWSRKMPCVS (d-G at position 1 (so in the source)) [JM#38] | > 0.15 µM |  |
| IVRWSKKVPC[dV]S [JM#14] | > 0.15 µM |  |
| IVRWSHKVPCVS [JM#4] | > 0.15 µM |  |
| [dL]LRWSRK(Stearoyl)-NH2 (N-terminus assumed; SMILES CCCCCCCCCCCCCCCCCC(=O)NCCCC[C@H](NC(=O)[C@H](CCCNC(=N)N)NC(=O)[C@H](CO)NC(=O)[C@H](Cc1c[nH]c2ccccc12)NC(=O)[C@H](CCCNC(=N)N)NC(=O)[C@H](CC(C)C)NC(=O)[C@H](N)CC(C)C)C(N)=O) [JM#256] | 0.05 to 0.15 µM |  |
| [dL]MRWSRK(Palmitoyl)MPCVS [JM#176] | > 0.15 µM |  |
| IFRWSKKVPCVS [JM#2] | > 0.15 µM |  |
| MXRWSRKMPCVS (d-L at position 2) [JM#44] | > 0.15 µM |  |
| IFRWSRKVPCVS [JM#10] | 0.05 to 0.15 µM |  |
| M[dL]RWSRK(Palmitoyl)-NH2 (N-terminus assumed; SMILES CCCCCCCCCCCCCCCC(=O)NCCCC[C@H](NC(=O)[C@H](CCCNC(=N)N)NC(=O)[C@H](CO)NC(=O)[C@H](Cc1c[nH]c2ccccc12)NC(=O)[C@H](CCCNC(=N)N)NC(=O)[C@@H](CC(C)C)NC(=O)[C@@H](N)CCSC)C(N)=O) [JM#181] | > 0.15 µM |  |

| Binder | IC50, HIV inhibition assay | further results |
| --- | --- | --- |
| IVRWSK(Palmitoyl)K-NH2 [JM#164] | > 0.15 µM |  |
| ILRWSRK(Palmitoyl)MPCLS [JM#149] | 0.05 to 0.15 µM |  |
| ILRWSRK([Glu-Palmitoyl])MPCLS [JM#148] | > 0.15 µM |  |
| [dF]LRWSRKMPCVS [JM#30] | > 0.15 µM |  |
| XLRWSRKMPCVS (d-M at position 1) [JM#28] | > 0.15 µM | IC50, HIV-1 inhibition assay: 0.246 µM |
| ILRWSRK(Stearoyl)LPCVS [JM#182] | > 0.15 µM |  |
| Ac-[dS]MRWSRKMPCVS [JM#33] | > 0.15 µM |  |
| IVRWSKKMPCVS [JM#12] | > 0.15 µM |  |
| ILRWSRKVPCVS [JM#8] | 0.05 to 0.15 µM |  |
| IFRWSHKVPCVS [JM#11] | > 0.15 µM |  |
| IVRWSKKIPCVS [JM#6] | > 0.15 µM |  |
| ILRWSRK(Lau)LPCVS [JM#214] | 0.05 to 0.15 µM |  |
| ILRWSRKLPCVS (not fully specified (residue 7)) [JM#143] | > 0.15 µM | IC50, X4-HIV-1 inhibition assay: 0.005 µM; fold increase of anti-HIV-1 potency compared to WSC02: > 60 fold |
| IVRWSK(Palmitoyl)KVPCVS [JM#168] | > 0.15 µM |  |
| GLRWSRKMPCVS [JM#31] | > 0.15 µM |  |
| MLRWSRKMPCVS [JM#27] | 0.05 to 0.15 µM |  |
| ILRWSHKVPCVS [JM#9] | > 0.15 µM |  |
| [dF]MRWSRKMPCVS [JM#37] | > 0.15 µM |  |
| ILRWSRK(Myristoyl)-NH2 [JM#262] | 0.05 to 0.15 µM |  |

| Binder | IC50, HIV inhibition assay | further results |
| --- | --- | --- |
| Ac-SLRWSRKMPCVS [JM#25] | > 0.15 µM |  |
| ILRWSRKLPCK([Glu-Palmitoyl])S [JM#145] | > 0.15 µM |  |
| [dL]MRWSRKMPCVS (ends and bridges not checked) [JM#36] | > 0.15 µM | IC50, HIV-1 inhibition assay: 0.206 µM |
| ILRWSRKLPSVS [JM#122] | 0.05 to 0.15 µM |  |
| [dM]MRWSRKMPCVS [JM#35] | > 0.15 µM |  |
| [dL]LRWSRKMPCVS [JM#29] | > 0.15 µM |  |
| ILRWSRKVPSVS [JM#23] | > 0.15 µM |  |
| IXRWSRKLPCVS (d-L at position 2) [JM#41] | > 0.15 µM |  |
| ILRWSRKMPSVS [JM#24] | > 0.15 µM |  |
| IVRWSKKVPSVS [JM#151] | > 0.15 µM |  |
| IVRWSKKVP-NH2 [JM#106] | > 0.15 µM |  |
| IVRWSKKFPCVS [JM#7] | > 0.15 µM |  |
| IVRWSKKLPCVS [JM#5] | > 0.15 µM |  |
| [dI]LRWSRK-NH2 [JM#173] | > 0.15 µM |  |
| M[dL]RWSRK(Palmitoyl)LP-NH2 (N-terminus assumed; SMILES CCCCCCCCCCCCCCCC(=O)NCCCC[C@H](NC(=O)[C@H](CCCNC(=N)N)NC(=O)[C@H](CO)NC(=O)[C@H](Cc1c[nH]c2ccccc12)NC(=O)[C@H](CCCNC(=N)N)NC(=O)[C@@H](CC(C)C)NC(=O)[C@@H](N)CCSC)C(=O)N[C@@H](CC(C)C)C(=O)N1CCC[C@H]1C(N)=O) [JM#179] | > 0.15 µM |  |
| IIRWSRKMPCVS [JM#16] | > 0.15 µM |  |
| Ac-[dS]LRWSRKMPCVS [JM#26] | > 0.15 µM |  |
| MMRWSRKMPCVS [JM#34] | 0.05 to 0.15 µM |  |
